Values quoted from earlier work, collected in article PMC3877032.

Columns and labels:
ERK2 (Homo sapiens) = ERK2 (Homo sapiens) (UniProt P28482)
PLD1 (Homo sapiens) = PLD1 (Homo sapiens) (UniProt Q13393)
Sequence of UniProt Q13393 (Q13393 whole entry): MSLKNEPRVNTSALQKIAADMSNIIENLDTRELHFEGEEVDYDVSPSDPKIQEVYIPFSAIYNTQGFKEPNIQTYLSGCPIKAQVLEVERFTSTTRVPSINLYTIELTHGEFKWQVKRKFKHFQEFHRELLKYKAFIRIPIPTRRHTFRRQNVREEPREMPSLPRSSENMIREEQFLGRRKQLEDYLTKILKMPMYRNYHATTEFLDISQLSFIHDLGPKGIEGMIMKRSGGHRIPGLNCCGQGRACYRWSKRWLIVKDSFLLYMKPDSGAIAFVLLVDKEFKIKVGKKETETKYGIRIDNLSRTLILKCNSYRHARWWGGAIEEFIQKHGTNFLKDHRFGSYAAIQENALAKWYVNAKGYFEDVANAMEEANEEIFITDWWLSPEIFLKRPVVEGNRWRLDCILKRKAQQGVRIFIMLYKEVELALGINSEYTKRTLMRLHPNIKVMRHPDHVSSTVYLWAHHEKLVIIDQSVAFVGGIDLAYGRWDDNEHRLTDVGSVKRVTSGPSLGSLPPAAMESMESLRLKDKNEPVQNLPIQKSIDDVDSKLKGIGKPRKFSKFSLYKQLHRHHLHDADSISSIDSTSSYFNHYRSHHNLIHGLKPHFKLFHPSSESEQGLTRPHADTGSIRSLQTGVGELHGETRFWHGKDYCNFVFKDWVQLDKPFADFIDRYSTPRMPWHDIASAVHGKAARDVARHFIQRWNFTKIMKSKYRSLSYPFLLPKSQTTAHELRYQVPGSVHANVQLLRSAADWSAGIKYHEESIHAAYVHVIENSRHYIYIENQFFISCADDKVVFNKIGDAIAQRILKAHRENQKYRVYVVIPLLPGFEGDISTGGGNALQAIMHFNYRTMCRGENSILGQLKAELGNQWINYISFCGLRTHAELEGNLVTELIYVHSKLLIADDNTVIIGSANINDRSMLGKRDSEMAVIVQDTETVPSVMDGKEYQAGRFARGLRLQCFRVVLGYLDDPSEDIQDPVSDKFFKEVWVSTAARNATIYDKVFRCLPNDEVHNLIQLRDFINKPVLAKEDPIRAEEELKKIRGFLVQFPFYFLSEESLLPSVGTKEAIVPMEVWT

Sequence of UniProt P28482 (P28482 2-360): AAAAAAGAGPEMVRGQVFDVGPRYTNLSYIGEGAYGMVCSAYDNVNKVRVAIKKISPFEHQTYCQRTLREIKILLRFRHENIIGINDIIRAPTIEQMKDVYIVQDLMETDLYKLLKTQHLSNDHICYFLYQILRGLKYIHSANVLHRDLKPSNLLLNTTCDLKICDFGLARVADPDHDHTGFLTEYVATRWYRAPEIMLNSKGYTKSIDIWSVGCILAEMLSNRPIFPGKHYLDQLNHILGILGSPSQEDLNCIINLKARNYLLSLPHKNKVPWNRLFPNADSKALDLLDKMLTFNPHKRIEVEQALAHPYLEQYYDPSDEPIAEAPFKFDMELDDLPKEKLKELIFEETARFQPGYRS

Kd (ERK2 (Homo sapiens)): 133 nM
Substance: PEA-15 (from UniProt Q15121)
Kd (PLD1 (Homo sapiens)): 370 nM
